# Assay results taken from US11491212.
# Biological target: Factor X (FX), P00742
# Sequence (P00742 whole entry, looked up): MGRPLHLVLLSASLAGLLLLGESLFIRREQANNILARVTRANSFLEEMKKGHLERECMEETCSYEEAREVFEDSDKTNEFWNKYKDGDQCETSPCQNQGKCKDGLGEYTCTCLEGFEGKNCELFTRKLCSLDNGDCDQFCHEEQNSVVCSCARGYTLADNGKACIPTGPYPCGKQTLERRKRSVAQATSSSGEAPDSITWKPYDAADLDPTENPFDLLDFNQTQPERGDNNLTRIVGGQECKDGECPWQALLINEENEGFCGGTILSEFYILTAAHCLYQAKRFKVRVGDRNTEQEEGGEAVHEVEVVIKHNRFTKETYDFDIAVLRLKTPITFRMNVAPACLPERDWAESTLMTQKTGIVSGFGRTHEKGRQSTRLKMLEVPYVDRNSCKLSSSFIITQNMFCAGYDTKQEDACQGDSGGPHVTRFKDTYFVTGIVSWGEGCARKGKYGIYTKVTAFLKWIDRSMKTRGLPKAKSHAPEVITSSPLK
Protein,KM [µM],kcat (Catalytic activity of FIXa variants) [s⁻¹],kcat/KM [M⁻¹ s⁻¹]
FIXa D104N/K106S/K247N/N249S/R318Y/R338E/R403E/E410N (protein) chain 1: not shown chain 2: not shown,0.059,5.2,–
FIXa K247N/N249S/R318Y/R338E/R403E/E410N (protein) chain 1: not shown chain 2: not shown,0.0392,5.8,–
FIXa Y155F/I251S/R318Y/R338E/R403E/E410N (protein) chain 1: not shown chain 2: not shown,0.0433,7.2,–
FIXa I251S/R318Y/R338E/E410N (protein) chain 1: not shown chain 2: not shown,0.0162,6.2,3.8e+08
FIXa Y155F/K228N/R318Y/R338E/R403E/E410N (protein) chain 1: not shown chain 2: not shown,0.048,9.7,2e+08
FIXa Y155F/K247N/N249S/R318Y/R338E/R403E/E410N (protein) chain 1: not shown chain 2: not shown,0.0391,6.5,1.8e+08
FIXa I251S/R318Y/R338E/R403E/E410N (protein) chain 1: not shown chain 2: not shown,0.0334,4.8,–
FIXa D85N/K228N/R318Y/R338E/R403E/E410N (protein) chain 1: not shown chain 2: not shown,0.0393,6,–
FIXa A103N/N105S/K247N/N249S/R318Y/R338E/R403E/E410N (protein) chain 1: not shown chain 2: not shown,0.0397,4.1,1e+08
FIXa Y259F/K265T/Y345T (protein) chain 1: not shown chain 2: not shown,0.0309,1.7,–
